T1: C terminal domain of polyadenylate-binding protein 1 (human, UniProt P11940 544-623)
T1 chain: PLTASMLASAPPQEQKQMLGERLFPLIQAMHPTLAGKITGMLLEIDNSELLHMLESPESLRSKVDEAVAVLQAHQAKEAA

T2: programmed cell death 6-interacting protein (ALIX) V domain (human)
T2 chain: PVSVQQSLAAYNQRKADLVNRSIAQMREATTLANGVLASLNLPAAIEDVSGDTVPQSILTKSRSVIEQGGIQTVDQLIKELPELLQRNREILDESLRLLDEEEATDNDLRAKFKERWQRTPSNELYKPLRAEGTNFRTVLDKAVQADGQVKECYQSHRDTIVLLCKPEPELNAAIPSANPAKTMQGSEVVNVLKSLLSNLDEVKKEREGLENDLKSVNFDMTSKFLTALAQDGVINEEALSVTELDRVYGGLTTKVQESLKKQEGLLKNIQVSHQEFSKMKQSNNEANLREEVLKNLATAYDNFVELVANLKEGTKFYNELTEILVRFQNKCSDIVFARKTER

B1: tumor susceptibility gene 101 protein UEV domain (domain or fragment)
chain: AVSESQLKKMVSKYKYRDLTVRETVNVITLYKDLKPVLDSYVFNDGSSRELMNLTGTIPVPYRGNTYNIPICLWLLDTYPYNPPICFVKPTSSMTIKTGKHVDANGKIYLPYLHEWKHPQSDLLGLIQVMIVVFGDEPPVFSRP
B2: GAE domain of the ADP-ribosylation factor-binding protein GGA3 (domain or fragment)
chain: SSALPVTAYDKNGFRILFHFAKECPPGRPDVLVVVVSMLNTAPLPVKSIVLQAAVPKSMKVKLQPPSGTELSPFSPIQPPAAITQVMLLANPLKEKVRLRYKLTFALGEQLSTEVGEVDQFP
B3: N-terminal domain of clathrin (domain or fragment)
chain: MAQILPIRFQEHLQLQNLGINPANIGFSTLTMESDKFICIREKVGEQAQVVIIDMNDPSNPIRRPISADSAIMNPASKVIALKAGKTLQIFNIEMKSKMKAHTMTDDVTFWKWISLNTVALVTDNAVYHWSMEGESQPVKMFDRHSSLAGCQIINYRTDAKQKWLLLTGISAQQNRVVGAMQLYSVDRKVSQPIEGHAASFAQFKMEGNAEESTLFCFAVRGQAGGKLHIIEVGTPPTGNQPFPKKAVDVFFPPEAQNDFPVAMQISEKHDVVFLITKYGYIHLYDLETGTCIYMNRISGETIFVTAPHEATAGIIGVNRKGQVLSVCVEEENIIPYITNVLQNPDLALRMAVRNNLAGAEELF
B4: Mu homology domain (MHD) of the AP-2 subunit mu (domain or fragment)
chain: RNELFLDVLESVNLLMSPQGQVLSAHVSGRVVMKSYLSGMPECKFGMNDKIVIEKQGKGTADETSKSGKQSIAIDDCTFHQCVRLSKFDSERSISFIPPDGEFELMRYRTTKDIILPFRVIPLVREVGRTKLEVKVVIKSNFKPSLLAQKIEVRIPTPLNTSGVQVICMKGKAKYKASENAIVWKIKRMAGMKESQISAEIELLPTNDKKKWARPPISMNFEVPFAPSGLKVRYLKVFEPKLNYSDHDVIKWVRYIGRSGIYETR
B5: centrosomal protein of 55 kDa EABR domain (domain or fragment)
chain: FNSSINNIHEMEIQLKDALEKNQQWLVYDQQREVYVKGLLAKIFELEKKTETAAH
B6: VHS domain of the ADP-ribosylation factor-binding protein GGA3 (domain or fragment)
chain: ATNPSNRQEDWEYIIGFCDQINKELEGPQIAVRLLAHKIQSPQEWEALQALTVLEACMKNCGRRFHNEVGKFRFLNELIKVVSPKYLGDRVSEKVKTKVIELLYSWTMALPEEAKIKDAYHMLKRQGIVQS

Key:
Assay in all cases: FP
[1] = target: TSG101 binding peptide from ALIX (PDC6IP) (human, UniProt Q8WUM4)
[2] = target: VP40 1-20 (SEBOV)
[3] = target: NP (ZEBOV) peptide with the 466-YGEY-469 stretch (Zaire ebolavirus, UniProt P18272)
[4] = target: SYNRG 664-679 (Human)
[5] = target: Nsp3_(1765-1780) (EEEV) peptide (Eastern equine encephalitis virus)
[6] = target: AP1B1 626-641 (Human)
[7] = target: ARRB2 367-382 (Human)
[8] = target: RdRp 1840-1855 (SVV)
[9] = target: EGFR 992-1007 (Human)
[10] = target: L (OLVV)
[11] = target: ACP2 407-422 (Human)
[12] = target: Nsp4 75-90 (BAV)
[13] = target: NP (ZEBOV) peptide with the 340-YQQL-343 sequence (Zaire ebolavirus, UniProt P18272)
[14] = target: Rabies virus (RABV) protein P peptide (Rabies virus)
[15] = target: Reston ebolavirus (REBOV) nucleoprotein (NP) peptide (Reston ebolavirus)
[16] = target: CEP55 binding peptide from ALIX (human, UniProt Q8WUM4)
[17] = target: CEP55 binding peptide from TEX1 (human, UniProt Q8IWB6)
[18] = target: T1, C terminal domain of …
[19] = target: M 26-41 (RABV)
[20] = target: T2, programmed cell death 6-interacting …
[21] = target: B3

Binder: B1
- Kd [1]: 150 µM
- Kd [2]: 12 µM

Binder: B2
- Kd [3]: 10 µM
- Kd [4]: 11 µM

Binder: B3
- Kd [5]: 27 µM
- Kd [6]: 280 µM
- Kd [7]: 39 µM
- Kd [8]: ~800 µM

Binder: B4
- Kd [9]: 2.4 µM
- Kd [10]: 11 µM
- Kd [11]: 220 µM
- Kd [12]: 16 µM
- Kd [13]: 9.5 µM

Binder: B5
- Kd [14]: 22 µM
- Kd [15]: 2.2 µM
- Kd [16]: ~0.3 µM
- Kd [17]: ~0.3 µM

Binder: HPLLNPSALEFNPSQT [N_(351-366) (HCoV 229E) peptide]
- Kd [18]: 23 µM

Binder: NSMLNPNAVPFQPSPQ [N_(2-17) (BeV) peptide]
- Kd [18]: 2.7 µM

Binder: MSKLSVNAPEFYPSGY [PABP-interacting protein 1 peptide PAIP1_(125-140)]
- Kd [18]: 1.6 µM

Binder: B6
- Kd [19]: 150 µM

Binder: TTGLNPTAVPFTLRNL [P/V/C_(183-198) (NiV) peptide]
- Kd [18]: 15 µM

Binder: KSNLNPNAKEFVPGVK [PABP-interacting protein 2 peptide PAIP2_(108-123)]
- Kd [18]: 0.16 µM

Binder: VDEEKGLYPNLKLTEPTAPMIHNYM [Nsp4_(118-142) (BAV) peptide]
- Kd [20]: 160 µM

Binder: VDGAADLIDFSVPTDE [mu-NS_(705-720) (MRV1) peptide]
- Kd [21]: 32 µM

Binder: SAGLNPAAVPFVPKNQ [P/V/C_(183-198) (HeV) peptide]
- Kd [18]: 2 µM

From paper PMC10132805 (2023)
